Consider nine molecules from patent publication US20030158387A1 (PHARIS BIOTEC, published 2003).

*: point of attachment. Nonanoyl = CCCCCCCCC(=O)*

T1: chemokine receptor CCR3 (UniProt P51677 1-355, limits assumed)
T1 construct: whole, on cells
T1 sequence (looked up): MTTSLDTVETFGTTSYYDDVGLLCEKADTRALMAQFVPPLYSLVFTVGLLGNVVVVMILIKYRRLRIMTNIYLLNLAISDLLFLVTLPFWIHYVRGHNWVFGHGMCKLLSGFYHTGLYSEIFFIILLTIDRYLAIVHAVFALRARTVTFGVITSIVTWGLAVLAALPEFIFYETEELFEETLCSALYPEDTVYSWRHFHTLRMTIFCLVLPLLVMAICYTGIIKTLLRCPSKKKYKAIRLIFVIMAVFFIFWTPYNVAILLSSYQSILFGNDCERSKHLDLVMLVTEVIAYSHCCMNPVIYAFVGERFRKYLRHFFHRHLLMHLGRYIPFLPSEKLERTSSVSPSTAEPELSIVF

B1: HCC-1[10-74] (ligand)
chain: PYHPSECCFTYTTYKIPRQRIMDYYETNSQCSKPGIVFITKRGHSVCTNPSDKWVQDYIKDMKEN
notes: Synthetic, oxidatively folded
B2: NNY-HCC-1[10-74] (nonanoyl-HCC-1[10-74]) (ligand)
chain: Nonanoyl-PYHPSECCFTYTTYKIPRQRIMDYYETNSQCSKPGIVFITKRGHSVCTNPSDKWVQDYIKDMKEN
modifications: ends and bridges not checked
notes: Chemokine compound analog, synthetic
B3: processed human chemokine PHC-1 (HCC-1[9-74]) (ligand)
chain: GPYHPSECCFTYTTYKIPRQRIMDYYETNSQCSKPGIVFITKRGHSVCTNPSDKWVQDYIKDMKEN
notes: Purified from human hemofiltrate or made by tryptic digestion of HCC-1 (1-74)
B4: HCC-1[8-74] (ligand)
chain: RGPYHPSECCFTYTTYKIPRQRIMDYYETNSQCSKPGIVFITKRGHSVCTNPSDKWVQDYIKDMKEN
notes: Synthetic, oxidatively folded
B5: HCC-1[7-74] (ligand)
chain: SRGPYHPSECCFTYTTYKIPRQRIMDYYETNSQCSKPGIVFITKRGHSVCTNPSDKWVQDYIKDMKEN
notes: Synthetic, oxidatively folded
B6: RANTES (ligand, UniProt P13501 24-91, looked up)
chain: SPYSSDTTPCCFAYIARPLPRAHIKEYFYTSGKCSNPAVVFVTRKNRQVCANPEKKWVREYINSLEMS
modifications: ends and bridges not checked; also: 125I-labelled where used as tracer, unlabelled in functional assays
B7: HCC-1[11-74] (ligand)
chain: YHPSECCFTYTTYKIPRQRIMDYYETNSQCSKPGIVFITKRGHSVCTNPSDKWVQDYIKDMKEN
notes: Synthetic, oxidatively folded
B8: HCC-1, residues 6-74 (ligand)
chain: SSRGPYHPSECCFTYTTYKIPRQRIMDYYETNSQCSKPGIVFITKRGHSVCTNPSDKWVQDYIKDMKEN
notes: also called HCC-1[6-74]
B9: HCC-1[12-74] (ligand)
chemokine chain: HPSECCFTYTTYKIPRQRIMDYYETNSQCSKPGIVFITKRGHSVCTNPSDKWVQDYIKDMKEN
notes: Not in the list MOLECULES; also called PHC-2

For orientation: Ki means a measure of affinity in units of concentration, obtained from inhibition or displacement. As usually defined, the IC50 is the point on the concentration scale where inhibition reaches its midpoint. Low values mean higher potency, high ones lower potency. Usually EC50 (read off the curve) stands for the concentration at which the effect is half-maximal. The low end stands for greater potency, the high end for weaker potency.

T2 sequence (P51681 whole entry): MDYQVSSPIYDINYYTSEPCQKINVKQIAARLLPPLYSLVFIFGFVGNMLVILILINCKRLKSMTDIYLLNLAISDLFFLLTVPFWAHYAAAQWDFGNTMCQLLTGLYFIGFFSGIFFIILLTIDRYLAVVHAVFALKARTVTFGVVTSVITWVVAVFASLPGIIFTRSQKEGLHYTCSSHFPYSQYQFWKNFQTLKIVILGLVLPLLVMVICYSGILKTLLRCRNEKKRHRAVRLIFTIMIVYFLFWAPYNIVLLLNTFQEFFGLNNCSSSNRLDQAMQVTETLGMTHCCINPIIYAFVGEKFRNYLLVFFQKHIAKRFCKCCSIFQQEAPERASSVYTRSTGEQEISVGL

The first assay has as its target T2, chemokine receptor 5 (CCR5) (human, UniProt P51681 1-352).
T2 construct: whole, on cells
The assay can be described thus: competition radioligand binding, membranes of CHO-K1 cells expressing CCR5, tracer [125I]-MIP-1 beta.
As to B1, the “IC50 (read off the curve)” value is about 0.1 nM.
With B2, the “IC50 (read off the curve)” value was about 0.04 nM.
Still for that read-out and setting: in the case of B3 it was about 0.1 nM.

In another assay the target is T1, chemokine receptor CCR3. The assay can be described thus: competition with 125I-Eotaxin for binding to CCR3. The method, then: (§1) For determination of its binding properties, CHO-K1 cells were used which were stably transfected with the chemokine receptors CCR1, CCR3, CCR5. Therefore, crude membrane extracts prepared from the CHO-K1 cell lines expressing the various GPC were used in radioligand binding assays. Competition binding assays were performed in Minisorp tubes (Nunc, Roskilde, Denmark) in a total volume of 100 μl containing 0.11 nM iodinated ligand as tracer, variable concentrations of competitors and defined amount of membranes. Total binding was measured in the absence of competitor and non-specific binding was measured with a 100-fold excess, of unlabelled ligand. Samples were incubated for 90 minutes at 25° C. then filtered through GF/B filters presoaked in 0.3% polyethylenenimine. Filters were counted in a gamma scintillation counter (Packard). Binding parameters were determined with the PRISM software (Graphpad software, San Diego, Calif.) using non-linear regression applied to a one site competition model.
With B3, the Ki worked out at 2.7 nM. This counts as single-digit nanomolar.

A further assay concerns the target T2, chemokine receptor 5 (CCR5). The assay can be described thus: cell-based or functional assay.
For the molecule B4, the “EC50 (aequorin luminescence, CHO-K1 cells expressing CCR5)” value was determined as 177 nM.
On the same count and under the same terms, with B1 the figure was 3.48 nM; with B5, 165 nM.
As to B6, the “EC50 (aequorin luminescence, CHO-K1 cells expressing CCR5)” value amounted to 8.48 nM.
Same read-out and setting: with B7 the figure was 224 nM; with B2, 0.453 nM; with B8, 402 nM.
The same measure, in the same setting: with B3 the figure was 6.45 nM.

Another assay has the same target. The assay can be described thus: competition with 125I-MIP-1 alpha for binding to CCR5. As for the experimental part:
as §1
The molecule B3 showed a Ki of 0.04 nM.

For the next assay the target is unchanged. Kind of assay: competition radioligand binding, membranes of CHO-K1 cells expressing CCR5, tracer [125I]-MIP-1 beta; mean ± SEM.
In turn, B9 showed an IC50 of 4.29 nM.
On the same count and under the same terms, with B4 the figure was 5.9 nM.
Same read-out and setting: in the case of B1 it was 0.065 nM; in that of B5, 7.72 nM.
The molecule B7 gave an IC50 of 1.2 nM.
The same measure, in the same setting: in the case of B2 it was 0.0343 nM; in that of B8, 21.6 nM; in that of B3, 0.0961 nM.

For another assay the target is unchanged. The assay can be described thus: competition with 125I-MIP-1 alpha, membranes of CHO-K1 cells expressing CCR5, filtration, one site competition model; 125I-MIP 1-alpha tracer, CCR5 membranes. As for the experimental part: as §1
B3 had an IC50 of 0.04 nM.

A further assay has as its target T1, chemokine receptor CCR3. The assay can be described thus: cell-based or functional assay.
For the molecule B3, the “EC50 of receptor activation (aequorin assay)” value was found to be 78 nM.

The next assay has as its target T2, chemokine receptor 5 (CCR5). The assay can be described thus: cell-based or functional assay. This is another data set of the same source.
Take B1: the “EC50 (read off the curve)” value is about 6 nM.
Still for that read-out and setting: in the case of B6 it was about 10 nM.
Regarding B3, the “EC50 (read off the curve)” value was about 7 nM.

The next assay has as its target T1, chemokine receptor CCR3. Kind of assay: competition with 125I-Eotaxin, membranes of CHO-K1 cells expressing CCR3, filtration, one site competition model; 125I-Eotaxin tracer, CCR3 membranes. As for the experimental part:
as §1
The molecule B3 yielded an IC50 of 2.7 nM.

The next assay deals with T2, chemokine receptor 5 (CCR5). The assay can be described thus: competition radioligand binding, membranes of CHO-K1 cells expressing CCR5, tracer [125I]-MIP-1 beta. This is another data set of the same source.
Consider B1, for which the “IC50 (read off the curve)” value is about 0.1 nM.
Same read-out and setting: in the case of B8 it was about 20 nM; in that of B3, about 0.1 nM.

Another assay has the same target. The assay can be described thus: cell-based or functional assay. This is another data set of the same source.
In the case of B1, the “EC50 (read off the curve)” value is about 6 nM.
Turning to B6, the “EC50 (read off the curve)” value was about 10 nM.
On the same count and under the same terms, in the case of B2 it was about 1 nM.
Turning to B3, the “EC50 (read off the curve)” value is about 7 nM.
